The source of these data is patent US7067474B1, “Agents for treating human illnesses based on β-catenin, and the production and use thereof” (Max-Delbruck-Centrum fur Molekulare Medizin, priority 1998, dated 2006).

Format in all cases: binding
Assay [1] concerns the target T1, LEF-1/β-catenin interaction (Homo sapiens, UniProt P35222).
T1 construct: made in house; host or cells: bacteria
T1 sequence (P35222 1-781): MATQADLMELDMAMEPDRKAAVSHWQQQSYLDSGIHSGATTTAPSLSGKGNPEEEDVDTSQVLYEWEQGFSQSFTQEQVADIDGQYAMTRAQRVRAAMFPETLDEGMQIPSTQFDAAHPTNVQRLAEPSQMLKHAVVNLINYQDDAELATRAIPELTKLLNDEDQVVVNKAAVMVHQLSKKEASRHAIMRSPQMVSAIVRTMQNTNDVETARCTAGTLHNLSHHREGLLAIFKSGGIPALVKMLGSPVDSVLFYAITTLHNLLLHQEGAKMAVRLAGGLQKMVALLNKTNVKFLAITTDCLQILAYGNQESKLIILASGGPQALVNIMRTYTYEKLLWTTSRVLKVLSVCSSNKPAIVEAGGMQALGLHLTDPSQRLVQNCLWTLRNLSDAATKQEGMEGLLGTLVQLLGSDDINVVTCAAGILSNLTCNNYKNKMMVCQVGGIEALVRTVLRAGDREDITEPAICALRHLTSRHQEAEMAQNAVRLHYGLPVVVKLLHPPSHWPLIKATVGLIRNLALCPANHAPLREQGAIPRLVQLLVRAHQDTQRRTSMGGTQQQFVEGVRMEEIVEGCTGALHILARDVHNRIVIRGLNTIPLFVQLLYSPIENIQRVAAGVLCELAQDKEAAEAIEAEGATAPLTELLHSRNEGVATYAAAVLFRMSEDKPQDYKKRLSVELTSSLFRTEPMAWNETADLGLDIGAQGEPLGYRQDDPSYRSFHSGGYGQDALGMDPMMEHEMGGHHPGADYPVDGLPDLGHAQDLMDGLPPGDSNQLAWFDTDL
Nature of the assay: ELISA: inhibition of complex formation of LEF-1 and β-catenin. The note with it: for inhibition of the interaction between LEF-1 and β-catenin (complex formation): synthetic peptides, 100 μM to 0.3 μM. The text has this:
Both proteins were produced in bacteria recombinantly with N-terminal histidine sequences, purified by means of nickel chromatography for quantifying the inhibition of the LEF-1/β-catenin interaction by synthetic peptides and (Behrens et al. 1996). The peptides were produced by the company Biosyntan with the aid of a PSSM-8 automaton (Shimadzu, Japan) applying the Fmoc/But strategy (E. Atherton and R. C. Sheppard. 1989 IRL Press. Oxford: “Solid phase peptide synthesis—a practical approach”). Approx. 50 ng of LFF-1 were absorbed in the wells of ELISA plates for 90 minutes at room temperature. Subsequently, the wells were covered with 5% dry milk powder in PBS for 16 hours at 4° C. All further steps were carried out at room temperature in PBS with 50 mM Tris HCl (pH 7.5). After washing the wells with PBS the peptide dilutions were added. The incubation with 50–100 ng of β-catenin was carried out for 10 minutes in the presence of […] BSA. The complex formation of LEF-1 and β-catenin was detected by the antibody PA2 against the carboxy terminal area of β-catenin (Huelsken et al. 1994). PA2 was added in a standard dilution of 1:5000 in 3% of dry milk powder in PBS for 10 minutes. After washing the wells with PBS a quantification was carried out by detection antibodies conjugated by peroxidase (1: 2500 in 3% of dry milk powder in PBS, Dianova) and the conversion of o-phenylenediamine was determined by photometric measurement at […]. The peptides were used in concentrations of 100 μM to 0.3 μM. To check the specificity of the inhibition of the LEF-1/β-catenin interaction β-catenin was absorbed in the wells and detected by means of the same antibodies in the presence and absence of the peptides (FIGS. 2 and 3).
For a mutation analysis of the peptides the indicated amino acids were substituted by alanine during the synthesis. The inhibition of the complex formation of β-catenin and LEF-1 was quantified as has been already described (FIG. 2).
For orientation: ELISA stands for enzyme-linked immunosorbent assay.

Assay [2] concerns the target T2, APC (15 amino acid repeats) (Homo sapiens, UniProt P25054).
T2 construct: of human APC for the amino acids His1012–Glu1215 (APC 15 amino acid repeats); expressed in transfected cells; host or cells: yeast (two-hybrid, Matchmaker, Clontech)
T2 sequence (P25054 1006-1209 limits assumed): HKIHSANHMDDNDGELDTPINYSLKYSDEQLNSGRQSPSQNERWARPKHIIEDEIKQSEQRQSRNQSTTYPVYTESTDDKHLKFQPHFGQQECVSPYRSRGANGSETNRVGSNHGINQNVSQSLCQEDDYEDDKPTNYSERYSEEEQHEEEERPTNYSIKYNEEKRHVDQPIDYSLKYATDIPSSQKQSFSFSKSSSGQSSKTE
As to the kind of experiment: yeast 2-hybrid: interaction of β-catenin mutants with APC 15 amino acid repeats. The conditions noted are these: for Interaction With APC-15, share of wild type β-catenin interaction: yeast 2-hybrid, alanine mutants. The procedure: (§1) The mutagenesis of β-catenin in the armadillo repeats 3–8 was carried out by means of the “mutagenesis kit” of the company Clontech according to the producer's record and the mutants were checked by sequencing (FIG. 5). In all mutants the original amino acid was substituted by alanine. For analyzing the interactions the cDNA of human β-catenin (armadillo repeat 3 up to the C-terminal end of the protein) coding for the amino acids Leu218–Leu7 μl or its mutants was cloned into the fusion vector for the activation domain of Gal-4 (pGAD424, Clontech). The cDNA for the binding domains of the interaction partners was cloned into the Lex-A fusion vector BTM 116. To this end, the cDNA of LEF-1 for the amino acids 1–99, conductin for the amino acids Ala342–ARG465; of human APC for the amino acids His1012–Glu1215 (APC 15 amino acid repeats) and for the amino acids Ser1259Asp 1400 (APC 20 amino acid repeats) and E-cadherin for the amino acids Gin773–Asp884 (cytoplasmatic domain) were amplified with the respective primers PCR. The interaction of the Lex-A hybrids with β-catenin and its mutants was quantified by means of the β-galactosidase reporter activity in the yeast 2-hybrid system (report: “Matchmaker”. Clontech) (Tab. 2 and FIG. 6).

Another assay concerns the target T3, E-cadherin (Mus musculus, UniProt P09803).
T3 construct: E-cadherin for the amino acids Gin773–Asp884 (cytoplasmatic domain); expressed in transfected cells; host or cells: yeast (two-hybrid, Matchmaker, Clontech)
Nature of the assay: yeast 2-hybrid: interaction of β-catenin mutants with E-cadherin. The note with it: alanine mutants. The procedure:
as §1

Another assay has as its target T4, conductin (Mus musculus, UniProt O88566).
T4 construct: conductin for the amino acids Ala342–ARG465; expressed in transfected cells; host or cells: yeast (two-hybrid, Matchmaker, Clontech)
Nature of the assay: yeast 2-hybrid: interaction of β-catenin mutants with conductin. The conditions noted are these: yeast 2-hybrid, alanine mutants. The procedure: as §1

The target of a further assay is T5, LEF-1 (Mus musculus, UniProt P27782).
T5 construct: the cDNA of LEF-1 for the amino acids 1–99; expressed in transfected cells; host or cells: yeast (two-hybrid, Matchmaker, Clontech)
As to the kind of experiment: yeast 2-hybrid: interaction of β-catenin mutants with LEF-1. The note with it: yeast 2-hybrid, alanine mutants. The procedure:
as §1

Assay [3] deals with T6, APC (20 amino acid repeats) (Homo sapiens, UniProt P25054).
T6 construct: for the amino acids Ser1259Asp 1400 (APC 20 amino acid repeats); expressed in transfected cells; host or cells: yeast (two-hybrid, Matchmaker, Clontech)
T6 sequence (P25054 1253-1394 limits assumed): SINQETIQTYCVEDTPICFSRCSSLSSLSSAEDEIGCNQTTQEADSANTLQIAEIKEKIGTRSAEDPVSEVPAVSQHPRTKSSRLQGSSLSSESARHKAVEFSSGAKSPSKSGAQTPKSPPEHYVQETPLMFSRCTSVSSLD
As to the kind of experiment: yeast 2-hybrid: interaction of β-catenin mutants with APC 20 amino acid repeats. The note with it: yeast 2-hybrid, alanine mutants. The procedure: as §1

Structures can show the parent of a compound that is named as a salt. Where no end group is shown, it is not given here.

T4 sequence (O88566 343-465 limits assumed): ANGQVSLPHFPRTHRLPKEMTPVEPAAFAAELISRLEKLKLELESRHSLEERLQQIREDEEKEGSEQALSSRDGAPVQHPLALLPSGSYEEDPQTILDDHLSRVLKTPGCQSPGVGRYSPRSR
T5 sequence (P27782 1-99): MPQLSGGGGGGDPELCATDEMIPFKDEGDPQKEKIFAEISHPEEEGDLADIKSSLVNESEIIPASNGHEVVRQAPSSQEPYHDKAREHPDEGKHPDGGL
T3 sequence (P09803 773-884): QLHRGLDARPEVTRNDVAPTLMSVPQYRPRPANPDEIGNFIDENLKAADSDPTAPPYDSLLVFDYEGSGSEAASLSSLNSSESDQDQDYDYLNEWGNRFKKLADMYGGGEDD

Turning to “Ile35–Val56: peptide of LEF-1 with the amino acids Ile35–Val56 (IFAEISHPEEEGDLADIKSSLV)”, in assay [1], the “inhibition of the interaction between LEF-1 and β-catenin (complex formation)” value (from here on “inhibition”) is “does not inhibit complex formation”.

“Lys21: synthetic hTCF-4 N-terminal peptide with Lys21 substituted (GGDDLGANDELISFADEGEQEEK)”: in assay [1], the “inhibition” value is “has the same effect”.

For orientation: IC50 means the midpoint of a concentration-inhibition curve. In the case of `Cn1nnnc1SCC1=C(C(=O)O)N2C(=O)C(NC(=O)[C@@H](O)c3ccccc3)C2SC1` (some centres unmarked) [cefamandole, CEFAMANDOLESODIUM SALT, reference compound], the IC50 in assay [1] (recombinant purified proteins, 15–250 μM, FIG. 9, read-out: IC50, reduction of the complex formation of LEF-1 and β-catenin) is 25 µM.

On to “Asp22: synthetic hTCF-4 N-terminal peptide with Asp22 substituted by alanine (GGDDLGANDELISFKAEGEQEEK)”, for which the “inhibition” value in assay [1] was “stopping the inhibition”.

With “Asp10: synthetic hTCF-4 N-terminal peptide with Asp10 substituted by alanine (GGDALGANDELISFKDEGEQEEK)”, the “inhibition” value in assay [1] is on record as “stopping the inhibition”.

Turning to “Asp15: synthetic hTCF-4 N-terminal peptide with Asp15 substituted by alanine (GGDDLGANAELISFKDEGEQEEK)”, the “inhibition” value in assay [1] is “stopping the inhibition”.

Turning to ELCATDEMIPFKDE [14–27], the “inhibition” value in assay [1] is given as “inhibit specifically”.

Consider “Phe20: synthetic hTCF-4 N-terminal peptide with Phe20 substituted (GGDDLGANDELISAKDEGEQEEK)”, for which the “inhibition” value in assay [1] is “has the same effect”.

GDPELCATDEMIPFKDEGDPQKEK [11–34]: the “inhibition” value in assay [1] is “inhibit specifically”.

B1: Arg 386: human β-catenin mutant, Arg 386 substituted by alanine (arm 6) (protein)
chain: LHNLSHHREGLLAIFKSGGIPALVKMLGSPVDSVLFYAITTLHNLLLHQEGAKMAVRLAGGLQKMVALLNKTNVKFLAITTDCLQILAYGNQESKLIILASGGPQALVNIMRTYTYEKLLWTTSRVLKVLSVCSSNKPAIVEAGGMQALGLHLTDPSQRLVQNCLWTLANLSDAATKQEGMEGLLGTLVQLLGSDDINVVTCAAGILSNLTCNNYKNKMMVCQVGGIEALVRTVLRAGDREDITEPAICALRHLTSRHQEAEMAQNAVRLHYGLPVVVKLLHPPSHWPLIKATVGLIRNLALCPANHAPLREQGAIPRLVQLLVRAHQDTQRRTSMGGTQQQFVEGVRMEEIVEGCTGALHILARDVHNRIVIRGLNTIPLFVQLLYSPIENIQRVAAGVLCELAQDKEAAEAIEAEGATAPLTELLHSRNEGVATYAAAVLFRMSEDKPQDYKKRLSVELTSSLFRTEPMAWNETADLGLDIGAQGEPLGYRQDDPSYRSFHSGGYGQDALGMDPMMEHEMGGHHPGADYPVDGLPDLGHAQDLMDGLPPGDSNQLAWFDTDL
modifications: left off: large carriers; small tags and cut ends
As to B1, in assay [2], the “Interaction With APC-15, share of wild type β-catenin interaction” value turned out to be 12%. The “interaction with APC 15aa” value in assay [2] (β-catenin mutation, in words) is reported as “no interaction with APC 15aa”. Besides, the “Interaction With E-Cadherin, share of wild type β-catenin interaction” value with E-cadherin is “— (Interactions marked by — correspond to 60–100% of the wild type interaction)”. For the same molecule, in the assay with conductin, the “Interaction With Conductin, share of wild type β-catenin interaction” value stood at 45%.

B2: Arg 342: human β-catenin mutant, Arg 342 substituted by alanine (arm 5) (protein)
chain: LHNLSHHREGLLAIFKSGGIPALVKMLGSPVDSVLFYAITTLHNLLLHQEGAKMAVRLAGGLQKMVALLNKTNVKFLAITTDCLQILAYGNQESKLIILASGGPQALVNIMRTYTYEKLLWTTSAVLKVLSVCSSNKPAIVEAGGMQALGLHLTDPSQRLVQNCLWTLRNLSDAATKQEGMEGLLGTLVQLLGSDDINVVTCAAGILSNLTCNNYKNKMMVCQVGGIEALVRTVLRAGDREDITEPAICALRHLTSRHQEAEMAQNAVRLHYGLPVVVKLLHPPSHWPLIKATVGLIRNLALCPANHAPLREQGAIPRLVQLLVRAHQDTQRRTSMGGTQQQFVEGVRMEEIVEGCTGALHILARDVHNRIVIRGLNTIPLFVQLLYSPIENIQRVAAGVLCELAQDKEAAEAIEAEGATAPLTELLHSRNEGVATYAAAVLFRMSEDKPQDYKKRLSVELTSSLFRTEPMAWNETADLGLDIGAQGEPLGYRQDDPSYRSFHSGGYGQDALGMDPMMEHEMGGHHPGADYPVDGLPDLGHAQDLMDGLPPGDSNQLAWFDTDL
modifications: left off: large carriers; small tags and cut ends
With B2, the “Interaction With APC-15, share of wild type β-catenin interaction” value in assay [2] is listed as “— (Interactions marked by — correspond to 60–100% of the wild type interaction)”. Further, in the assay with LEF-1, the “Interaction With LEF-1, share of wild type β-catenin interaction” value is reported as “— (Interactions marked by — correspond to 60–100% of the wild type interaction)”. The “Interaction With APC-20, share of wild type β-catenin interaction” value in assay [3] worked out at 29%. In the assay with conductin, the “Interaction With Conductin, share of wild type β-catenin interaction” value is 20%.
